Data published in patent publication US20220324978A1.

T1: Histidine-tagged canine PD-1 protein (canine)
T1 sequence: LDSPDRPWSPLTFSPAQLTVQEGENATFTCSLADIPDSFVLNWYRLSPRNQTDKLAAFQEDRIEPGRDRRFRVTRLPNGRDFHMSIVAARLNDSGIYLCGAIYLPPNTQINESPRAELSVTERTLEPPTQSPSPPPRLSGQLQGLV


Target: T1, Histidine-tagged canine PD-1 protein (canine)
Assay: SPR (Biacore), dPD-1-His amine-coupled to CM5 chip, antibody injected, 1:1 Langmuir fit

Binder	Kd [nM]	koff [s⁻¹]	kon [M⁻¹ s⁻¹]
4A7-mHvKv-dIgG4 (antibody, V domains shown) VH: EVQLVESGGDLVKPGGSLKLSCVASGFPFSNFGMSWVRQTPDKRLEWVATISSGSSYSYYSDSVKGRFTISRDNAKNTLFLQMNSLKSEDTAIFYCARGESRFAYWGQGTLVTVSA VL: DVVITQDELSNPVTSGESVSISCRSNKSLLYEDGQTYLNWFLQRPGQSPQLLIYLMSTRASGVSDRFSGSGSGTDFTLEISEVRAEDVGVYYCQQLIEYPLTFGAGTKLELKR	0.29	0.000152	525000
1D8-H1K1-dIgG4 (antibody, V domains shown) VH: EVQLVESGGDLVKPVGSLRLSCVASGFTFNNFGMSWVRQAPGKGLQWVATLSSGSSYTYYSDSVKGRFTISRDNAKNTLYLQMNSLRAEDTAMYYCTRGESRFAYWGQGTLVTVSA VL: GVVITQDPLSLAVTPGELVTISCRSSKSLLYKDGKTYLNWYLQKPGQTPRLLIYLMSTRASGVSDRFSGSGSGTDFTLKISRVEAEDVGVYYCQQLIEYPLTFGAGTKVELK	4.57	0.00309	675000
1D8-mHvKv-dIgG4 (antibody, V domains shown) VH: EVQLVESGGDLVKPGGSLKLSCAASGFTFNNFGMSWVRQNPDKRLEWVATLSSGSSYTYYSDSVKGRFTISRDNAKNTLYLQMNSLKSEDTAMYYCTRGESRFAYWGQGTLVTVSA VL: GVVITQDELSNPVTSGESVSISCRSSKSLLYKDGKTYLNWFLQRPGQSPQLLIYLMSTRASGVSDRFSGSGSGTDFTLEISRVKAEDVGVYYCQQLIEYPLTFGAGTKLELKR	0.094	0.000135	1.44e+06
1D8-H1K2-dIgG4 (antibody, V domains shown) VH: EVQLVESGGDLVKPVGSLRLSCVASGFTFNNFGMSWVRQAPGKGLQWVATLSSGSSYTYYSDSVKGRFTISRDNAKNTLYLQMNSLRAEDTAMYYCTRGESRFAYWGQGTLVTVSA VL: GVVITQDPLSLAVTPGELVTISCRSSKSLLYKDGKTYLNWFLQKPGQTPRLLIYLMSTRASGVSDRFSGSGSGTDFTLKISRVEAEDVGVYYCQQLIEYPLTFGAGTKVELK	4.5	0.00248	550000
1D8-H2K2-dIgG4 (antibody, V domains shown) VH: EVQLVESGGDLVKPVGSLRLSCVASGFTFNNFGMSWVRQAPGKGLEWVATLSSGSSYTYYSDSVKGRFTISRDNAKNTLYLQMNSLRAEDTAMYYCTRGESRFAYWGQGTLVTVSA VL: GVVITQDPLSLAVTPGELVTISCRSSKSLLYKDGKTYLNWFLQKPGQTPRLLIYLMSTRASGVSDRFSGSGSGTDFTLKISRVEAEDVGVYYCQQLIEYPLTFGAGTKVELK	4.34	0.00262	604000
1B9-H2K1-IgG4 (antibody, V domains shown) VH: EVQLVQSGAEVKKPGASVKVSCKASGYTFTSFWMNWVRLAPGAGLEWIGRVDPYDSETHYNQKFKDRAILTVDTSTSTAYMELSSLRAGDIAVYYCATQFGFSWLAYWGQGTLVTVSA VL: EIVMTQSPGSLAGSAGESVSINCKSSQSLLYSSNQKNYLAWYQQKPGESPKLLIYWASTRESGVPDRFSGSGSGTDFTLTINNLQAEDVGVYYCQQYYSNPYTFGQGTKLEIK	0.768	0.000454	591000

The next lines start with the values.

Kd [nM]	koff [s⁻¹]	kon [M⁻¹ s⁻¹]	Binder
5.36	0.00348	650000	1D8-H2K1-dIgG4 (antibody, V domains shown) VH: EVQLVESGGDLVKPVGSLRLSCVASGFTFNNFGMSWVRQAPGKGLEWVATLSSGSSYTYYSDSVKGRFTISRDNAKNTLYLQMNSLRAEDTAMYYCTRGESRFAYWGQGTLVTVSA VL: GVVITQDPLSLAVTPGELVTISCRSSKSLLYKDGKTYLNWYLQKPGQTPRLLIYLMSTRASGVSDRFSGSGSGTDFTLKISRVEAEDVGVYYCQQLIEYPLTFGAGTKVELK
1.07	0.000454	424000	1B9-H1K1-IgG4 (antibody, V domains shown) VH: EVQLVQSGAEVKKPGASVKVSCKTSGYTFTSFWMNWVRLAPGAGLDWIGRVDPYDSETHYNQKFKDRVILTVDTSTSTAYMELSSLRAGDIAVYYCATQFGFSWLAYWGQGTLVTVSA VL: EIVMTQSPGSLAGSAGESVSINCKSSQSLLYSSNQKNYLAWYQQKPGESPKLLIYWASTRESGVPDRFSGSGSGTDFTLTINNLQAEDVGVYYCQQYYSNPYTFGQGTKLEIK
0.745	0.00043	577000	1B9-H2K2-IgG4 (antibody, V domains shown) VH: EVQLVQSGAEVKKPGASVKVSCKASGYTFTSFWMNWVRLAPGAGLEWIGRVDPYDSETHYNQKFKDRAILTVDTSTSTAYMELSSLRAGDIAVYYCATQFGFSWLAYWGQGTLVTVSA VL: DIVMTQSPGSLAVSAGESVSINCKSSQSLLYSSNQKNYLAWYQQKPGESPKLLIYWASTRESGVPDRFSGSGSGTDFTLTINNVQAEDVGVYYCQQYYSNPYTFGQGTKLEIK
1.03	0.00049	475000	1B9-H1K2-IgG4 (antibody, V domains shown) VH: EVQLVQSGAEVKKPGASVKVSCKTSGYTFTSFWMNWVRLAPGAGLDWIGRVDPYDSETHYNQKFKDRVILTVDTSTSTAYMELSSLRAGDIAVYYCATQFGFSWLAYWGQGTLVTVSA VL: DIVMTQSPGSLAVSAGESVSINCKSSQSLLYSSNQKNYLAWYQQKPGESPKLLIYWASTRESGVPDRFSGSGSGTDFTLTINNVQAEDVGVYYCQQYYSNPYTFGQGTKLEIK
